Here are results for three molecules from article doi:10.1101/2023.03.23.533938 (bioRxiv, 2023).

Substitutions are numbered along the chain they refer to.

To fix the notation:
T1: Swi5-Sfr1 complex, wild type (S. pombe, UniProt Q9USV1;Q9UUB7)
T1 sequence 1: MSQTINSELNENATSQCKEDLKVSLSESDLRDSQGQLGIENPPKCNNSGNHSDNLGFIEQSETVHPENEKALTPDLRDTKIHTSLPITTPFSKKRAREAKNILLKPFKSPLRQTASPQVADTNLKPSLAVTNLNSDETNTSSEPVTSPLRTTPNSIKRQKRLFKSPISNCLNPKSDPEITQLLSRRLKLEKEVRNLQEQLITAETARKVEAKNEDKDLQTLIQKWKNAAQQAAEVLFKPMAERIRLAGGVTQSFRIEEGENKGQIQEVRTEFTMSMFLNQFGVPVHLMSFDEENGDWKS
T1 sequence 2: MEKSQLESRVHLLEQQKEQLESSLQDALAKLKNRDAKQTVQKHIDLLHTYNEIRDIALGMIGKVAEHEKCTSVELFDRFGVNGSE

T2: Sfr1, wild type (S. pombe, UniProt Q9USV1 1-299)
T2 sequence: T1 sequence 1

B1: Rad51 (natural protein)
chain: MADTEVEMQVSAADTNNNENGQAQSNYEYDVNVQDEEDEAAAGPMPLQMLEGNGITASDIKKIHEAGYYTVESIAYTPKRQLLLIKGISEAKADKLLGEASKLVPMGFTTATEYHIRRSELITITTGSKQLDTLLQGGVETGSITELFGEFRTGKSQICHTLAVTCQLPIDMGGGEGKCLYIDTEGTFRPVRLLAVADRYGLNGEEVLDNVAYARAYNADHQLELLQQAANMMSESRFSLLVVDSCTALYRTDFSGRGELSARQMHLARFMRTLQRLADEFGIAVVITNQVVAQVDGISFNPDPKKPIGGNILAHSSTTRLSLRKGRGEQRICKIYDSPCLPESEAIFAINSDGVGDPKEIIAPV
B2: Swi5 (natural protein)
chain: T1 sequence 2
B3: Swi5-Sfr1 phosphomimetic mutant complex (complex)
chain 1: T1 sequence 1 with S24D, T73D, S109D, S116D, S165D
chain 2: T1 sequence 2

Experiment [1] deals with T1, Swi5-Sfr1 complex, wild type. The experiment is described as follows: pull-down.
Experiment [2] addresses T2, Sfr1, wild type. The experiment is described as follows: SEC.
Experiment [3] concerns the target B1. As to the kind of experiment: pull-down.

Consider B1, for which the binding result in experiment [1] is recorded as “binds”.

On to B2, for which the binding result in experiment [2] is given as “binds”.

Take B3: the “fold reduction in co-precipitation with Rad51 against wild type” value in experiment [3] is about 5 fold.
